Data taken from PMC10397247.

T1: 4H3417-AA
T1 chain: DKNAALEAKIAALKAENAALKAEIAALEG

T2: 4H3446-AA
T2 chain: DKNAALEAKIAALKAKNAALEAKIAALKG

T3: 4H3591-AA
T3 chain: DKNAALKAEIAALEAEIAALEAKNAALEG

T4: 4H3628-AA
T4 chain: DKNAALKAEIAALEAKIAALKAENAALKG

T5: 4H3666-AA
T5 chain: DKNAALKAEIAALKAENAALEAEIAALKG

T6: 4H3709-AA
T6 chain: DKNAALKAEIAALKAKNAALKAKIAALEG

T7: 4H391-AA
T7 chain: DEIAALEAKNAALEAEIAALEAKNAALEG

T8: 4H3920-AA
T8 chain: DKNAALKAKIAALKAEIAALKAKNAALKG

T9: 4H3939-AA
T9 chain: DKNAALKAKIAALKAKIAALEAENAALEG

T10: 4H428-AA
T10 chain: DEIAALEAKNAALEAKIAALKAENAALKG

T11: 4H478-AA
T11 chain: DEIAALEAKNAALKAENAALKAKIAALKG

T12: 4H497-AA
T12 chain: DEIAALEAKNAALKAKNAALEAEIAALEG

T13: 4H656-AA
T13 chain: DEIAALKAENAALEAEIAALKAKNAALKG

T14: 4H675-AA
T14 chain: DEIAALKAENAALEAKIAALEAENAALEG

T15: 4H971-AA
T15 chain: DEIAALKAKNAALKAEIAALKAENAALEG

T16: 4H775-AA
T16 chain: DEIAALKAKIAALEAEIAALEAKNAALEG

T17: 4H816-AA
T17 chain: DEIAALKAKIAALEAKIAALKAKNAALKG

T18: 4H87-AA
T18 chain: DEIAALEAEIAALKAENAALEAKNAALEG


Experiments:
Assay in all cases: two-hybrid library CCmax;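 further: natural log of median RNA to DNA barcode read ratio; higher means stronger binding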
4H3417-AA = target: T1, 4H3417-AA
4H3446-AA = target: T2, 4H3446-AA; details: mean of both orientations
4H3591-AA = target: T3, 4H3591-AA; details: mean of both orientations
4H3628-AA = target: T4, 4H3628-AA; details: mean of both orientations
4H3666-AA = target: T5, 4H3666-AA; details: mean of both orientations
4H3709-AA = target: T6, 4H3709-AA; details: mean of both orientations
4H391-AA = target: T7, 4H391-AA; details: mean of both orientations
4H3920-AA = target: T8, 4H3920-AA; details: mean of both orientations
4H3939-AA = target: T9, 4H3939-AA; details: mean of both orientations
4H428-AA = target: T10, 4H428-AA; details: mean of both orientations
4H478-AA = target: T11, 4H478-AA; details: mean of both orientations
4H497-AA = target: T12, 4H497-AA; details: mean of both orientations
4H656-AA = target: T13, 4H656-AA; details: mean of both orientations
4H675-AA = target: T14, 4H675-AA; details: mean of both orientations
4H971-AA = target: T15, 4H971-AA; details: mean of both orientations
4H775-AA = target: T16, 4H775-AA
4H816-AA = target: T17, 4H816-AA; details: mean of both orientations
4H87-AA = target: T18, 4H87-AA; details: mean of both orientations

interaction score (4H3417-AA) | interaction score (4H3446-AA) | interaction score (4H3591-AA) | interaction score (4H3628-AA) | interaction score (4H3666-AA) | interaction score (4H3709-AA) | interaction score (4H391-AA) | interaction score (4H3920-AA) | interaction score (4H3939-AA) | interaction score (4H428-AA) | interaction score (4H478-AA) | interaction score (4H497-AA) | interaction score (4H656-AA) | interaction score (4H675-AA) | interaction score (4H971-AA) | interaction score (4H775-AA) | interaction score (4H816-AA) | interaction score (4H87-AA) | Binder
0.336 | -0.679 | -1.37 | -1.29 | 1.09 | -0.223 | -1.68 | -1.61 | -1.87 | -0.935 | 0.524 | -1.9 | 0.318 | -0.587 | -1.03 | – | – | – | DKNAALEAKIAALKAENAALKAEIAALEG [4H3417-AA]
– | – | – | – | – | – | – | – | – | – | – | – | – | – | – | 1.62 | 1.66 | -1.7 | DEIAALKAKIAALEAEIAALEAKNAALEG [4H775-AA]
